Assay results: publication PMC6218115 (2018)
Non-standard residues stand in square brackets, D forms with d. No end group written: not given here.

How the values were obtained:
[1] = target: alpha-1-acid glycoprotein (AGP) (Homo sapiens, UniProt P02763); assay: TRANSIL XL AGP bead binding with liquid scintillation counting
[2] = target: human serum albumin (HSA) (Homo sapiens, UniProt P02768); assay: TRANSIL XL HSA bead binding with liquid scintillation counting

Chain of alpha-1-acid glycoprotein (AGP) (P02763 19-201): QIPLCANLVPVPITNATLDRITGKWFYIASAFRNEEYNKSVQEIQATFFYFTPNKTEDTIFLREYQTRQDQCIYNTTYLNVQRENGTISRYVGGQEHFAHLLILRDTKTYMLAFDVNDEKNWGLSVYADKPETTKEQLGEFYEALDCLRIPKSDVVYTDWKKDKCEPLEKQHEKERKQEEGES

| Kd [1] | Kd [2] | Binder |
| --- | --- | --- |
| 60 nM | 138000 nM | [dR][dK][dR][dI][dR][dL][dV][dT][dK][dK][dK][dR][dR][dK][dR][dI][dR][dL][dV][dT][dK][dK][dK][dR]-NH2 (also: 3H-labelled tracer) [tANK6] |
| 290 nM |  | [dR][dK][dR][dI][dR][dL][dV][dT][dK][dK][dK][dR]-NH2 (also: 3H-labelled tracer) [ANK6] |
| 280 nM | 599000 nM | cyclo([dR][dK][dR][dI][dR][dL][dV][dT][dK][dK][dK][dR][dR]) (also: 3H-labelled tracer) [cANK6r] |
